Test results: PMC7544224 (Nucleic Acids Research, 2020)

T1: YefM antitoxin without tag (pET22b-yefM), as in the heterohexamer (S. aureus (NCTC8325 strain), UniProt A0A0B4ND47 1-83)
T1 sequence (looked up): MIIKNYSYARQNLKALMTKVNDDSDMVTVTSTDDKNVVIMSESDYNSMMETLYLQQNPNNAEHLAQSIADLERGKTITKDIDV

T2: YefM (antitoxin; in heterohexamer, YoeB2-YefM4);YoeB (toxin; in heterohexamer, YoeB2-YefM4) (Staphylococcus aureus …, UniProt Q2G285;Q2G286 1-83;1-88, |)
T2 sequence 1: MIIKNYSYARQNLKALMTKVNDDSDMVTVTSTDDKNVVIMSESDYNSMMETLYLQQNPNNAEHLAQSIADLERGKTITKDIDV
T2 sequence 2: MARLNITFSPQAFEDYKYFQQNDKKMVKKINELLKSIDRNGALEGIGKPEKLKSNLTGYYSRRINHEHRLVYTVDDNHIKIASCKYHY


Key:
SEC-MALS = target: the molecule itself; assay: SEC-MALS
[1] = target: T1, YefM antitoxin without tag …; assay: SEC-MALS
[2] = target: T2, YefM (antitoxin; in heterohexamer, …); assay: ITC

Row | Binder | binding result [2] | also measured
1 | YefM antitoxin, expressed alone (natural protein, S. aureus (NCTC8325 strain), UniProt A0A0B4ND47 1-83, looked up) MIIKNYSYARQNLKALMTKVNDDSDMVTVTSTDDKNVVIMSESDYNSMMETLYLQQNPNNAEHLAQSIADLERGKTITKDIDV |  | stoichiometry N (SEC-MALS): 2
2 | YoeB toxin with N-terminal 6xHis tag (pET28a-yoeB) (natural protein) MARLNITFSPQAFEDYKYFQQNNKKMVKKINELLKSIDRNGALEGIGKPEKLKSNLTGYYSRRINHEHRLVYTVDDNHIKIASCKYHY |  | stoichiometry N [1]: 0.5 YoeB per YefM
3 | promoter flank mutant (ATTGTACA to AGCGTACG) (dsDNA) DNA 1: TTAGCGTACGGATATGCGTACGCTTG DNA 2: CAAGCGTACGCATATCCGTACGCTAA | no binding | 
4 | promoter core mutant (ATTGTACA to ATTTTAAA) (dsDNA) DNA 1: TTATTTTAAAGATATTTTTAAAATTG DNA 2: CAATTTTAAAAATATCTTTAAAATAA | no binding | 
